Results: paper PMC10397247
Each block holds one binder with its values, some of them ahead of it.

How the values were obtained:
APC4011-AA = target: T1, APC4011-AA; assay: two-hybrid library CCmax;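 further: natural log of median RNA to DNA barcode read ratio; higher means stronger binding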
T1 chain: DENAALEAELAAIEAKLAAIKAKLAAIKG

APC4264-AA = target: T2, APC4264-AA; assay: two-hybrid library CCmax; details: mean of both orientations;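 further: natural log of median RNA to DNA barcode read ratio; higher means stronger binding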
T2 chain: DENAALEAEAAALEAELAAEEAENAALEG

APC4436-AA = target: T3, APC4436-AA; assay: two-hybrid library CCmax; details: mean of both orientations;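 further: natural log of median RNA to DNA barcode read ratio; higher means stronger binding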
T3 chain: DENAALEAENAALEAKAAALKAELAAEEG

APC5383-AA = target: T4, APC5383-AA; assay: two-hybrid library CCmax; details: mean of both orientations;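 further: natural log of median RNA to DNA barcode read ratio; higher means stronger binding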
T4 chain: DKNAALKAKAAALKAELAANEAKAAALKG

APC6108-AA = target: T5, APC6108-AA; assay: two-hybrid library CCmax; details: mean of both orientations
T5 chain: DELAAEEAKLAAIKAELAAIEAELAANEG

APC7099-AA = target: T6, APC7099-AA; assay: two-hybrid library CCmax; details: mean of both orientations
T6 chain: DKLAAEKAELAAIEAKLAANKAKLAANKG

APC8191-AA = target: T7, APC8191-AA; assay: two-hybrid library CCmax
T7 chain: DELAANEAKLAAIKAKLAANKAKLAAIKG

APC8910-AA = target: T8, APC8910-AA; assay: two-hybrid library CCmax; details: mean of both orientations
T8 chain: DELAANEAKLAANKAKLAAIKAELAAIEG

APC9096-AA = target: T9, APC9096-AA; assay: two-hybrid library CCmax; details: mean of both orientations
T9 chain: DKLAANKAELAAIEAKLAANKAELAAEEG

APC9319-AA = target: T10, APC9319-AA; assay: two-hybrid library CCmax; details: mean of both orientations
T10 chain: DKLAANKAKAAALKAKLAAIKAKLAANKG

4H3381-bA = target: T11, 4H3381-bA; assay: two-hybrid library CCNG1
T11 chain: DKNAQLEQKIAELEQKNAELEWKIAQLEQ

4H349-bA = target: T12, 4H349-bA; assay: two-hybrid library CCNG1
T12 chain: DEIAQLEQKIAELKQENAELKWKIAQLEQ

4H4001-bA = target: T13, 4H4001-bA; assay: two-hybrid library CCNG1
T13 chain: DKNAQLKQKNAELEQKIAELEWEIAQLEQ

4H56-bA = target: T14, 4H56-bA; assay: two-hybrid library CCNG1
T14 chain: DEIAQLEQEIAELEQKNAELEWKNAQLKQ

4H730-bA = target: T15, 4H730-bA; assay: two-hybrid library CCNG1
T15 chain: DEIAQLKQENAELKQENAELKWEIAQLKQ

4H796-bA = target: T16, 4H796-bA; assay: two-hybrid library CCNG1
T16 chain: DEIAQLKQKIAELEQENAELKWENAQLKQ

4H932-bA = target: T17, 4H932-bA; assay: two-hybrid library CCNG1
T17 chain: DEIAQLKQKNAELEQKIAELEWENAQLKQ

4H949-bA = target: T18, 4H949-bA; assay: two-hybrid library CCNG1
T18 chain: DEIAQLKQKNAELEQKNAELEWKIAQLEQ

4H4073-bN = target: T19, 4H4073-bN; assay: two-hybrid library CCNG1
T19 chain: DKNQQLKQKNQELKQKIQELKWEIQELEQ

4H457-bN = target: T20, 4H457-bN; assay: two-hybrid library CCNG1
T20 chain: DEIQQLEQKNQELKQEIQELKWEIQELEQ

4H575-bN = target: T21, 4H575-bN; assay: two-hybrid library CCNG1
T21 chain: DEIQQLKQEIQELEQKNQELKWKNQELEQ

4H683-bN = target: T22, 4H683-bN; assay: two-hybrid library CCNG1
T22 chain: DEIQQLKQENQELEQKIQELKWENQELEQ

4H754-bN = target: T23, 4H754-bN; assay: two-hybrid library CCNG1
T23 chain: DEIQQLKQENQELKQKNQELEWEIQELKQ

4H780-bN = target: T24, 4H780-bN; assay: two-hybrid library CCNG1
T24 chain: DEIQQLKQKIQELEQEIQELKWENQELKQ

4H797-bN = target: T25, 4H797-bN; assay: two-hybrid library CCNG1
T25 chain: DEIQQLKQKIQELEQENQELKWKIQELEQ

4H855-bN = target: T26, 4H855-bN; assay: two-hybrid library CCNG1
T26 chain: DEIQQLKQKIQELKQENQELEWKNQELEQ

4H918-bN = target: T27, 4H918-bN; assay: two-hybrid library CCNG1
T27 chain: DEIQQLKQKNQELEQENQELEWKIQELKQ

4H953-bN = target: T28, 4H953-bN; assay: two-hybrid library CCNG1
T28 chain: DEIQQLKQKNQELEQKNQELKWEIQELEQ

4H968-bN = target: T29, 4H968-bN; assay: two-hybrid library CCNG1
T29 chain: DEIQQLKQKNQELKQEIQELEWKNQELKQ

4H454-bA = target: T30, 4H454-bA; assay: two-hybrid library CCNG1
T30 chain: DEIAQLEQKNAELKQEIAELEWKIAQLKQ

4H462-bA = target: T31, 4H462-bA; assay: two-hybrid library CCNG1
T31 chain: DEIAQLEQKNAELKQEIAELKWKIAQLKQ

4H568-bA = target: T32, 4H568-bA; assay: two-hybrid library CCNG1
T32 chain: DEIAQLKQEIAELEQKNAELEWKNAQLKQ

4H607-bA = target: T33, 4H607-bA; assay: two-hybrid library CCNG1
T33 chain: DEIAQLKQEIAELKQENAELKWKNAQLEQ

4H687-bA = target: T34, 4H687-bA; assay: two-hybrid library CCNG1
T34 chain: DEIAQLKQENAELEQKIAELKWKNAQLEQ

4H717-bA = target: T35, 4H717-bA; assay: two-hybrid library CCNG1
T35 chain: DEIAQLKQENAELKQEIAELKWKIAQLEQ

4H72-bA = target: T36, 4H72-bA; assay: two-hybrid library CCNG1
T36 chain: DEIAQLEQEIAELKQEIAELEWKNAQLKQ

4H754-bA = target: T37, 4H754-bA; assay: two-hybrid library CCNG1
T37 chain: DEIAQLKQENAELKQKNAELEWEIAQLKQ

4H797-bA = target: T38, 4H797-bA; assay: two-hybrid library CCNG1
T38 chain: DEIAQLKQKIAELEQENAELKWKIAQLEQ

4H883-bA = target: T39, 4H883-bA; assay: two-hybrid library CCNG1
T39 chain: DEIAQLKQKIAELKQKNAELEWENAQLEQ

4H908-bA = target: T40, 4H908-bA; assay: two-hybrid library CCNG1
T40 chain: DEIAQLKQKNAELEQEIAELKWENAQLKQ

4H918-bA = target: T41, 4H918-bA; assay: two-hybrid library CCNG1
T41 chain: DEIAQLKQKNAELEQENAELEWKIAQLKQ

4H953-bA = target: T42, 4H953-bA; assay: two-hybrid library CCNG1
T42 chain: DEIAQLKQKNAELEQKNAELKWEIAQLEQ

4H967-bA = target: T43, 4H967-bA; assay: two-hybrid library CCNG1
T43 chain: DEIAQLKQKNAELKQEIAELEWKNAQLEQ

interaction score (APC4011-AA): 2.04
interaction score (APC4264-AA): -1.72
interaction score (APC4436-AA): -1.48
interaction score (APC5383-AA): -1.52
interaction score (APC6108-AA): 0.352
interaction score (APC7099-AA): -1.45
interaction score (APC8191-AA): -1.55
interaction score (APC8910-AA): -1.43
interaction score (APC9096-AA): -1.88
interaction score (APC9319-AA): -1.27
Binder: DENAALEAELAAIEAKLAAIKAKLAAIKG [APC4011-AA]

interaction score (4H3381-bA): 0.241
interaction score (4H349-bA): -1.06
interaction score (4H4001-bA): -0.563
interaction score (4H56-bA): -0.961
interaction score (4H730-bA): -1.47
interaction score (4H796-bA): -0.941
interaction score (4H932-bA): -0.845
interaction score (4H949-bA): -1.1
Binder: DKNAQLEQKIAELEQKNAELEWKIAQLEQ [4H3381-bA]

interaction score (4H4073-bN): -1.77
interaction score (4H457-bN): -0.816
interaction score (4H575-bN): -1.72
interaction score (4H683-bN): -1.31
interaction score (4H754-bN): -1.18
interaction score (4H780-bN): -0.882
interaction score (4H797-bN): -0.921
interaction score (4H855-bN): -0.729
interaction score (4H918-bN): -0.772
interaction score (4H953-bN): -1.56
interaction score (4H968-bN): -1.13
Binder: DKNQQLKQKNQELKQKIQELKWEIQELEQ [4H4073-bN]

interaction score (4H4001-bA): -0.927
interaction score (4H454-bA): 1.01
interaction score (4H462-bA): -0.0948
interaction score (4H568-bA): -1.47
interaction score (4H607-bA): -1.34
interaction score (4H687-bA): -1.34
interaction score (4H717-bA): -2.02
interaction score (4H72-bA): -1.27
interaction score (4H754-bA): -1.03
interaction score (4H797-bA): -1.28
interaction score (4H883-bA): -0.688
interaction score (4H908-bA): -0.992
interaction score (4H918-bA): -1.15
interaction score (4H953-bA): -1.52
interaction score (4H967-bA): -1.03
Binder: DKNAQLKQKNAELEQKIAELEWEIAQLEQ [4H4001-bA]
